Data on three proteins can be found in PMC8431961 (Science (New York, N.Y.), 2021).

First the molecules themselves.
B1: MmPNMA3 (natural protein, mouse, UniProt Q8JZW8 1-466, looked up)
chain: MPLNLLQDWCRGEHLNTQRSMLILGIPEDCSEDEFEETLHEALKHLGRYRIIGRMFRREENAQAFLVELARDFDYALVPREIEGKGGPWEVVVKPPHSDDEFLNRLNHFLEEERRTVSDMNRVLGTHSNHSPTKTTISADFWVWAQTLGAVMQPLLEQMLYRELRVFSGNTISIPGLLAFDSWLEHTTEMLQMWQVPEVEKRRRLMECLRGPALQVVNVLRANNAAITVKECLEALRQVFGSVDNRKIAQLKFCKAYQEPGEKVSSFVVRLETLLQKALEKNAISRKNVNQTRLKRILGGAILSAKLREKLKMLKQRRRPPGFLALVKLFREEEEEWEATRGSERSCYEGLELGPSPSNIGSEERELFVPAFGSVLEERPYQGSRRRRHRRRGQHRKGGVPRDDSQGTRKQNYDTFCYSCGEDGHIRVHCFNPSNRTLVKQKRQAAMEKGNRSWAWEKSHPKPKTK
B2: MmMOAP1 (natural protein, mouse, UniProt Q9ERH6 1-352, looked up)
chain: MTLRLLEDWCRGMDMNPRKALLVAGIPPTCGVADIEEALQAGLAPLGEHRLLGRMFRRDENKNVALIGLTVETGSALVPKEIPAKGGVWRVIFKPPDTDSDFLCRLNEFLKGEGMTMGELTRVLGNRNDPLGLDPGIMIPEIRAPMLAQALNEALKPTLQYLRYKKLSVFSGRDPPGPGEEEFESWMFHTSQVMKTWQVSDVEKRRRLIESLRGPAFEIIRVLKINNPFITVAECLKTLETIFGIIDNPRALQVKYLTTYQKTDEKLSAYVLRLEPLLQKLVQKGAIEKEVVNQARLDQVIAGAVHKSVRRELGLPEGSPAPGLLQLLTLIKDKEAEEEEVLLQAELEGYCT
B3: MmPNMA5 (natural protein, mouse, UniProt Q5DTT8 1-618, looked up)
chain: MAVALLDDWCKGMDLDPKKAVLIVGIPVQYTEAAINDALKEGLPPLCAYKVIGRMFRREDEAKAVLIELPEVVDYTMMPTHIPAEGGAWEVVVKPRSPDDEFMNKLIYFLRDEGRRIVDVAKALGFSTVPTGKIELKNLDQDKPKGLKSLCNNSTCYKKLKVFSGSPFPGPGEESFETWLEEVTELMQLWQVSEREKKQCLLESLRGSALSIMQALWTSNDSLTVEQCLKALKHIFGNKEDSKVLQFRFLQSSQKPAEKVSDYLLRLEPLLQKAVQQSPLSAHSADSIRLKHVLSQVSMTTGLRGKLSLLDQQGCPPTFLELMKLTRDEEEWESTVVVEEQEQVRRDSSACEAANEVVTQAEDSREVSTQTTGEEMTSVKRRRLLWRHSAGEEGQRKESGFWAESEPDEQKPYVRAQESGNERGAWAVSHPNPKEIEAQDSQEFLPVAGNRDTLTKSWGSPDKGTGDMSVAEGQQGQGKAPNFLLARNDPNKQEQIPHSSVTTKWQDRGECQRLKWGASMITRPQGNPDRSWDTSGSQDGEDGCSELRMPTGTEAAQGVEEPATGLSWAEDTSAWEQARLGRETVPRRGGRRIQPVFRIIYTALGEPHEGSTLESFRE

This data set concerns the molecule itself. The experiment in a line: SEC + other: electron microscopy.
For the protein B1, the binding result was “binds”.

On to B2, for which the binding result was “binds”.

Turning to B3, the binding result was “binds”.
